Here are results for 10 molecules from publication PMC5982114 (Arteriosclerosis, thrombosis, and vascular biology, 2018).

Some targets named below: FIXa K126A (human) (UniProt P00740); FIXa K132A (human) (UniProt P00740); FIXa K132A/R170A (human) (UniProt P00740); FIXa N129A (human) (UniProt P00740); FIXa R150A (human) (UniProt P00740); FIXa R165A (human) (UniProt P00740).
The target of the next experiment is Protein S (human) (UniProt P07225). The experiment in a line: fluorescence polarisation. Background: In fluorescence polarisation assays a small probe gives low polarisation when free and higher when bound to something large.
Experiment [1] addresses Alexa-Fluor-488-labeled PS (human) (UniProt P07225). The experiment in a line: flow cytometry on cells. Background: Flow cytometry measures light scatter and fluorescence of single cells or particles in a stream.
For experiment [2], the target named is FIXa Padua mutant (R170L) (human) (UniProt P00740).
The next experiment concerns the target Factor IXa wild type (human, UniProt P00740 47-191; P00740 227-461). The experiment in a line: cell-based or functional assay.
Another experiment concerns the target DEGR-FIXa K126A (human) (UniProt P00740). The experiment in a line: other fluorescence titration.
A further experiment deals with DEGR-FIXa K132A (human) (UniProt P00740). Kind of experiment: other fluorescence titration.
The next experiment concerns the target DEGR-FIXa N129A (human) (UniProt P00740). Kind of experiment: other fluorescence titration.
The target in experiment [3] is DEGR-FIXa Padua mutant (R170L) (human) (UniProt P00740). The experiment in a line: other fluorescence titration.
Another experiment concerns the target DEGR-FIXa R150A (human) (UniProt P00740). Kind of experiment: other fluorescence titration.
Another experiment deals with DEGR-FIXa R165A (human) (UniProt P00740). Kind of experiment: other fluorescence titration.
In experiment [4] the target is DEGR-labelled des-Gla FIXa (human). The experiment in a line: other fluorescence titration.

The molecule “FIXa N129A (from UniProt P00740 47-191) (enzyme)” showed an IC50 with Protein S (human) of 0.092 µM.

The molecule “FIXa Padua mutant (R170L) (from UniProt P00740 47-191) (enzyme)” had an IC50 with Protein S (human) of 0.163 µM.

Molecule “FIXa K132A (from UniProt P00740 47-191) (enzyme)” had an IC50 with Protein S (human) of 0.213 µM.

With “FIXa R165A (from UniProt P00740 47-191) (enzyme)”, in the experiment with Protein S (human), the IC50 stood at 0.068 µM.

Consider “FIXa K126A (from UniProt P00740 47-191) (enzyme)”, for which the 50% inhibitory concentration (IC50) with Protein S (human) was determined as 0.14 µM.

“fluorescently labeled des-Gla FIXa (domain or fragment)” displayed a median fluorescence intensity in experiment [1] of 4000.

In turn, des-Gla FIXa (domain or fragment) had an IC50 with Protein S (human) of 0.135 µM.

For “FIXa R150A (from UniProt P00740 47-191) (enzyme)”, in the experiment with Protein S (human), the IC50 came out at 0.043 µM.

In the case of zymogen form of FIX (natural protein), the IC50 with Protein S (human) was found to be 0.2 µM.

B1: Protein S (natural protein, human, UniProt P07225 42-676, looked up)
chain: ANSLLEETKQGNLERECIEELCNKEEAREVFENDPETDYFYPKYLVCLRSFQTGLFTAARQSTNAYPDLRSCVNAIPDQCSPLPCNEDGYMSCKDGKASFTCTCKPGWQGEKCEFDINECKDPSNINGGCSQICDNTPGSYHCSCKNGFVMLSNKKDCKDVDECSLKPSICGTAVCKNIPGDFECECPEGYRYNLKSKSCEDIDECSENMCAQLCVNYPGGYTCYCDGKKGFKLAQDQKSCEVVSVCLPLNLDTKYELLYLAEQFAGVVLYLKFRLPEISRFSAEFDFRTYDSEGVILYAESIDHSAWLLIALRGGKIEVQLKNEHTSKITTGGDVINNGLWNMVSVEELEHSISIKIAKEAVMDINKPGPLFKPENGLLETKVYFAGFPRKVESELIKPINPRLDGCIRSWNLMKQGASGIKEIIQEKQNKHCLVTVEKGSYYPGSGIAQFHIDYNNVSSAEGWHVNVTLNIRPSTGTGVMLALVSGNNTVPFAVSLVDSTSEKSQDILLSVENTVIYRIQALSLCSDQQSHLEFRVNRNNLELSTPLKIETISHEDLQRQLAVLDKAMKAKVATYLGGLPDVPFSATPVNAFYNGCMEVNINGVQLDLDEAISKHNDIRAHSCPSVWKKTKNS
As to B1, the Ki of inhibition by PS of FX activation by FIXa-phospholipid (S-2765) in the experiment with FIXa K126A (human) amounted to 0.1 µM; in the experiment with FIXa K132A (human), 0.132 µM; with FIXa K132A/R170A (human) it was 0.271 µM; with FIXa N129A (human), 0.072 µM; in [2], 0.175 µM; with FIXa R150A (human), 0.048 µM. The figures for the Ki of inhibition by PS of FX activation by FIXa-phospholipid (S-2765) with FIXa R165A (human) and with Factor IXa wild type were 0.033 µM and 0.035 µM, respectively. Besides, in the experiment with des-Gla FIXa (human), the Ki of inhibition by PS of FX activation in the Xase complex (FIXa-FVIIIa) worked out at 0.12 µM. Besides, the Kd came to 0.118 µM with DEGR-FIXa K126A (human); 0.148 µM with DEGR-FIXa K132A (human); 0.077 µM in the experiment with DEGR-FIXa N129A (human); 0.157 µM in [3]; 0.048 µM in the experiment with DEGR-FIXa R150A (human); 0.054 µM in the experiment with DEGR-FIXa R165A (human). The molecule also showed a Kd in experiment [4] of 0.124 µM.

In general, IC50 refers to the concentration needed to halve the response being measured. The Kd is the constant that tells how readily two partners part at equilibrium.
